This is an account of results in patent US20030087819.

This data set deals with T1, synthetic apoA-IMilano peptide 167-R173C-184.
T1 chain: SDELRQCLAARLEALKEN

B1: recombinant human LCAT enzyme (Lecithin:Cholesterol Acyltransferase) (protein)
chain: FWLLNVLFPPHTTPKAELSNHTRPVILVPGCLGNQLEAKLDKPDVVNWMCYRKTEDFFTIWLDLNMFLPLGVDCWIDNTRVVYNRSSGLVSNAPGVQIRVPGFGKTYSVEYLDSSKLAGYLHTLVQNLVNNGYVRDETVRAAPYDWRLEPGQQEEYYRKLAGLVEEMHAAYGKPVFLIGHSLGCLHLLYFLLRQPQAWKDRFIDGFISLGAPWGGSIKPMLVLASGDNQGIPIMSSIKLKEEQRITTTSPWMFPSRMAWPEDHVFISTPSFNYTGRDFQRFFADLHFEEGWYMWLQSRDLLAGLPAPGVEVYCLYGVGLPTPRTYIYDHGFPYTDPVGVLYEDGDDTVATRSTELCGLWQGRQPQPVHLLPLHGIQHLNMVFSNLTLEHINAILLGAYRQGPPASPTASPEPPPPE
Consider B1, for which the “LCAT activation (esterification of [14C]cholesterol on a proteoliposome substrate), as a percentage of activation obtained with apoA-IWT” value is “failed in this regard”.
